Laboratory results: the supplement of paper PMC10065799, “High-throughput profiling of sequence recognition by tyrosine kinases and SH2 domains using bacterial peptide display” (eLife, 2023)

Tests used:
Grb2 SH2 = Grb2 SH2 (UniProt P62993); test: SH2 binding enrichment of the phosphorylated peptide, bacterial display (enrichment ratio); higher = better substrate or ligand; peptides without Tyr show the background
SHP2-C SH2 = test: as above
c-Src SH2 = test: as above
Fer (mouse) = test: phosphorylation enrichment, bacterial display (enrichment ratio); higher = better substrate or ligand; peptides without Tyr show the background
EPHB1 = EPHB1 (UniProt P54762); test: as above
Chain of EPHB1 (P54762 whole entry, looked up): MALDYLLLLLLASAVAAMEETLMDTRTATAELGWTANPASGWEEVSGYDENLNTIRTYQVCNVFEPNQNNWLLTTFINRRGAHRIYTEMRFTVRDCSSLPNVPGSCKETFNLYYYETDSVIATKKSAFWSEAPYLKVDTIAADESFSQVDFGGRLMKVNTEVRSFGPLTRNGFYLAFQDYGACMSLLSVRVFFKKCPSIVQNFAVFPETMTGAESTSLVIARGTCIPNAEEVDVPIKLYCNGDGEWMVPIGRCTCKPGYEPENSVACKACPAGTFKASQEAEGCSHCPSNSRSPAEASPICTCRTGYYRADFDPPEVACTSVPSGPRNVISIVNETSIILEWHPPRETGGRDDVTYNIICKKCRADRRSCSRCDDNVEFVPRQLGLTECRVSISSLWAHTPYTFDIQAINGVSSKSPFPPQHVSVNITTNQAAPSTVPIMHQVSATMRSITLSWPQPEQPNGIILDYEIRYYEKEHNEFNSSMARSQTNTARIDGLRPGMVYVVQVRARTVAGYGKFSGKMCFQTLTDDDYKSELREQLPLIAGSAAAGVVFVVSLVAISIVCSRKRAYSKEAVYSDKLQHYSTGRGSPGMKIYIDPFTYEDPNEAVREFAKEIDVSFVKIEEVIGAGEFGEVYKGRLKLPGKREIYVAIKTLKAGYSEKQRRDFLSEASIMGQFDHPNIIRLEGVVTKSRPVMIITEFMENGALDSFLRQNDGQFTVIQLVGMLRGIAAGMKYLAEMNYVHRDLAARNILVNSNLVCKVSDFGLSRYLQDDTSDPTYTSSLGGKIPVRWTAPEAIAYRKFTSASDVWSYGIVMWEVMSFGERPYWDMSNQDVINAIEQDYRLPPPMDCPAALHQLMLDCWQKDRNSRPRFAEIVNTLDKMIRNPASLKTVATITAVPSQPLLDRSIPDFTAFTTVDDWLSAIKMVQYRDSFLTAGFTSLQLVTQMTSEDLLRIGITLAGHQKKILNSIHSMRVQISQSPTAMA

EPHB2 = EPHB2 (UniProt P29323); test: as above
Chain of EPHB2 (P29323 whole entry, looked up): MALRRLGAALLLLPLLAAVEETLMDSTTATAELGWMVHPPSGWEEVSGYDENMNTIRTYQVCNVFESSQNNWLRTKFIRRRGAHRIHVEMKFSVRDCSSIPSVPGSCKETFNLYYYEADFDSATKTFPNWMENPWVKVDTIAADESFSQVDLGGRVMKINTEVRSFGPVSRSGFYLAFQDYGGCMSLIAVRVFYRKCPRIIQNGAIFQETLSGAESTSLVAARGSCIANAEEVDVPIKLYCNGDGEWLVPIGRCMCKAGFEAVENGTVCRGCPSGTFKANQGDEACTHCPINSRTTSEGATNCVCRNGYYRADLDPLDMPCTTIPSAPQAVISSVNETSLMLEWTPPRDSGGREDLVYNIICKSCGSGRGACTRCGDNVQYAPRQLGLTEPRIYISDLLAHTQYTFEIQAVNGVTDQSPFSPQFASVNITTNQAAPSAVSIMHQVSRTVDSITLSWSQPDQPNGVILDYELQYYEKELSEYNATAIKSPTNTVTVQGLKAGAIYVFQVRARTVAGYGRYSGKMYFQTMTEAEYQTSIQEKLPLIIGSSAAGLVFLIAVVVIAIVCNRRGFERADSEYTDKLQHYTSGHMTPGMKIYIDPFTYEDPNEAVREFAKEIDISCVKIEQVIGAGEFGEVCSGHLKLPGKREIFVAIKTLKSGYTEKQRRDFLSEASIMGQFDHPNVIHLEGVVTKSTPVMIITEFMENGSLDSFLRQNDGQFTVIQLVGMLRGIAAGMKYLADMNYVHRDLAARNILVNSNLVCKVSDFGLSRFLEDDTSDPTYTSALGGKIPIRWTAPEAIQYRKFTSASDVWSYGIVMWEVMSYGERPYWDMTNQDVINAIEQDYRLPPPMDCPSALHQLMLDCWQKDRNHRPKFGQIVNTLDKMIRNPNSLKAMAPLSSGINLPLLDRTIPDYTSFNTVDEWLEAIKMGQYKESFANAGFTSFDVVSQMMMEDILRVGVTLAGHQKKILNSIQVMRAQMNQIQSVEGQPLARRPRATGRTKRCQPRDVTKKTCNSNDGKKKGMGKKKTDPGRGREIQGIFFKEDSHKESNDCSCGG

Fyn = Fyn (UniProt P06241); test: as above
Chain of Fyn (P06241 whole entry, looked up): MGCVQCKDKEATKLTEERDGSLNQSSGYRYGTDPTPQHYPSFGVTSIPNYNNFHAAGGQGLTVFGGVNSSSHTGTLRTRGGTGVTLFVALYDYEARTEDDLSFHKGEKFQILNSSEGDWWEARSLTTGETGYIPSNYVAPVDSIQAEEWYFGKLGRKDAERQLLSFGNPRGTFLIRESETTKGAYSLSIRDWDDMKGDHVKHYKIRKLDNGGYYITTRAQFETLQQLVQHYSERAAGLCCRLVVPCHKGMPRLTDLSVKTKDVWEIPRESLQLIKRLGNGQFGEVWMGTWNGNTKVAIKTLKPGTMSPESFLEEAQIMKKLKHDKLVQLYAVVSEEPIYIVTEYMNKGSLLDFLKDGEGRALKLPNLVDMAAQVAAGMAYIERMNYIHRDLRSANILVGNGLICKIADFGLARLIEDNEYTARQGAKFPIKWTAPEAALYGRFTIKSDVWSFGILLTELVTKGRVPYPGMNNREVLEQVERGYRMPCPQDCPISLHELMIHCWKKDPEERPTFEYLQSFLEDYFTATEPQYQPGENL

FGFR1 = FGFR1 (UniProt P11362); test: as above
Fes = Fes (UniProt P07332); test: as above
MERTK = MERTK (UniProt Q12866); test: as above
AncSZ = test: as above
FGFR3 = FGFR3 (UniProt P22607); test: as above
Chain of FGFR3 (P22607 whole entry, looked up): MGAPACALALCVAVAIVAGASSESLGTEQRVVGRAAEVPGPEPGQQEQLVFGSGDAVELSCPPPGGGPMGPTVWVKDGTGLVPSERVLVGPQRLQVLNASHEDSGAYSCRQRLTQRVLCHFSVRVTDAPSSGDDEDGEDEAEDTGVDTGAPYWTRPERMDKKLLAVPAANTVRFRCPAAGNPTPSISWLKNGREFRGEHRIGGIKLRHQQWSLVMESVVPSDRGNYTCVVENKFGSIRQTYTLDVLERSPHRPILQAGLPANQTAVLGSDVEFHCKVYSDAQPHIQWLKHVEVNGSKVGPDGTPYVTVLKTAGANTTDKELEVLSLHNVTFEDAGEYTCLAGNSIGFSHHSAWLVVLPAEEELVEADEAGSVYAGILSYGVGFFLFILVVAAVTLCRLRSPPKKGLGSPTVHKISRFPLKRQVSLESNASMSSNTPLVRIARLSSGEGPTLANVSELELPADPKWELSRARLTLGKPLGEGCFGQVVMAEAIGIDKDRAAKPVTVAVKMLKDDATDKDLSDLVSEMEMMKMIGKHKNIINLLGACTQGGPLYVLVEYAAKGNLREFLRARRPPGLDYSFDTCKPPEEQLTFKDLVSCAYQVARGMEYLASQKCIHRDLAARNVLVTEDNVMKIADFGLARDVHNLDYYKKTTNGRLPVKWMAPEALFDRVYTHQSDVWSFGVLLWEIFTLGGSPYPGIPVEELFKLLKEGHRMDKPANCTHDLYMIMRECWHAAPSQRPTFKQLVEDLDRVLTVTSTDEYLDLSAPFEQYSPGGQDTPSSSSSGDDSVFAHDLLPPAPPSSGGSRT

c-Src = test: as above
Hck = Hck (UniProt P08631); test: as above
Chain of Hck (P08631 whole entry, looked up): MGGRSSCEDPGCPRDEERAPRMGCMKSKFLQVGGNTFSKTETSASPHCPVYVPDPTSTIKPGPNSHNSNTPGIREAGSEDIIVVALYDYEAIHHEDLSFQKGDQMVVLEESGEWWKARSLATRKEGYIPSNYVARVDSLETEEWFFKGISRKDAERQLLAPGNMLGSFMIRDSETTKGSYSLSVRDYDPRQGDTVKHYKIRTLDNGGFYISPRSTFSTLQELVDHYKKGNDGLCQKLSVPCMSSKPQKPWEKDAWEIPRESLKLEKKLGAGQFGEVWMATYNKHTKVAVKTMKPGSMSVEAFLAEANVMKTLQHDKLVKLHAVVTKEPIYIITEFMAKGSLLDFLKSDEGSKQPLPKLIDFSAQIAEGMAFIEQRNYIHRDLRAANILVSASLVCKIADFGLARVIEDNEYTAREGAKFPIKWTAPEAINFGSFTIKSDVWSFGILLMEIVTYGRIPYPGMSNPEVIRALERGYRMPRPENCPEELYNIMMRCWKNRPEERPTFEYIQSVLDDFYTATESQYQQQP

c-Abl (mouse) = test: as above
Jak2 = Jak2 (UniProt O60674); test: as above
Chain of Jak2 (O60674 whole entry, looked up, the tested form may be a part): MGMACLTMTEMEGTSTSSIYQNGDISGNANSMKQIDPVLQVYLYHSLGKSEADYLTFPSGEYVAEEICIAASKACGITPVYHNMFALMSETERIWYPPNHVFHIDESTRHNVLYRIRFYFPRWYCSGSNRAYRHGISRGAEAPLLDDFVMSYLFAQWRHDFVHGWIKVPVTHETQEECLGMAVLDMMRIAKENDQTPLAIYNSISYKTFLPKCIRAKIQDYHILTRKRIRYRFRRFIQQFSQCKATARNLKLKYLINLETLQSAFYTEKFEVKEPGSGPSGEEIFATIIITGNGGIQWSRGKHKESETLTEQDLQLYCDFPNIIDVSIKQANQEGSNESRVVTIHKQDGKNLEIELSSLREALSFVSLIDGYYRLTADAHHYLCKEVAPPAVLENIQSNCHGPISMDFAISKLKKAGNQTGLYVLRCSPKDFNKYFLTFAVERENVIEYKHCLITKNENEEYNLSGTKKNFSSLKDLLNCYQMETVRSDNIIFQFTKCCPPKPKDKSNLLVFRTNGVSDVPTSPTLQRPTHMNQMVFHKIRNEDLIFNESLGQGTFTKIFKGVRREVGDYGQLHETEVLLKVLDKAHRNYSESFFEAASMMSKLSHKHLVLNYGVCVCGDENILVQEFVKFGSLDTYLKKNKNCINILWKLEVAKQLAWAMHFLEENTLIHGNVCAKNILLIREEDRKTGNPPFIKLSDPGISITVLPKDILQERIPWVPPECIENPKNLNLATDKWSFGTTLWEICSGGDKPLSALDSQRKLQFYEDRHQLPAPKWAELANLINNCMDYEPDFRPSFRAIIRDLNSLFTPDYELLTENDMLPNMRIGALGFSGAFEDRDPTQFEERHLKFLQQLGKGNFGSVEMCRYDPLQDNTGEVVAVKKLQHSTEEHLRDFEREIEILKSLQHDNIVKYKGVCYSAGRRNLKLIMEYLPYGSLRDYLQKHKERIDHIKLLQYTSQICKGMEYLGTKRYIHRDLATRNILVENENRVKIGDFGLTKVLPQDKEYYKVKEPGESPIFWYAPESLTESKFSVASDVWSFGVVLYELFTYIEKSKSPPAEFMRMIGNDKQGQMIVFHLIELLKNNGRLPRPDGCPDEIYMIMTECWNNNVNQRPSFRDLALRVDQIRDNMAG
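For SH2 binding enrichment of the phosphorylated peptide, bacterial display in this document: peptide library displayed on the E. coli surface as eCPX fusions, selected cells deep-sequenced, score is each peptide's frequency after selection divided by its frequency in the input.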
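For phosphorylation enrichment, bacterial display in this document: 11-residue human phosphosite peptides and single-mutation variants displayed on the E. coli surface, counted by deep sequencing, each peptide's frequency after selection divided by its frequency in the unselected input library; frequency after pTyr selection over input frequency; kinase dosed for 20-30% of maximal phosphorylation in three min.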

Sequence	SH2 binding enrichment (Grb2 SH2)	SH2 binding enrichment (SHP2-C SH2)	SH2 binding enrichment (c-Src SH2)	phosphorylation enrichment (Fer (mouse))	phosphorylation enrichment (EPHB1)	phosphorylation enrichment (EPHB2)	phosphorylation enrichment (Fyn)	phosphorylation enrichment (FGFR1)	phosphorylation enrichment (Fes)	phosphorylation enrichment (MERTK)	phosphorylation enrichment (AncSZ)	phosphorylation enrichment (FGFR3)	phosphorylation enrichment (c-Src)	phosphorylation enrichment (Hck)	phosphorylation enrichment (c-Abl (mouse))	phosphorylation enrichment (Jak2)
ISIFFYAKGQP [MPZ_Y82_H81Y_YF]	1.33	0.529	0.406	0.554	0.608	0.611	0.395	0.544	1.52	0.527	1.33	0.865	0.548	0.573	1.25	1.43
KLMTEYKKRKQ [ARFGEF3_Y2029]	1.27	0.878	1.08	0.411	0.336	0.34	0.418	0.331	0.69	0.52	0.478	0.543	0.442	0.459	0.629	0.653
MFVKSYTIHFS [F5_Y2153_YF]	0.742	0.753	0.494	0.464	0.565	0.579	0.482	0.49	1.19	0.456	1	0.736	0.48	0.495	0.851	1.05
SGSIHYSCVPR [GLB1_Y57_R59C]	0.734	0.747	0.569	0.578	0.591	0.585	0.474	0.536	1.15	0.517	1.05	0.771	0.526	0.54	0.898	1.06
PGIRMYRVQYN [LRFN1_Y454_Q455R]	0.838	0.714	0.507	0.989	0.744	0.586	0.486	0.58	1.08	0.527	0.759	0.713	0.473	0.62	0.675	0.626
PKKKQYTSIHH [APP_Y728_L723P]	1.01	0.946	0.936	0.595	0.441	0.646	0.757	0.71	0.849	0.656	0.646	0.928	0.457	0.755	0.617	0.85
FGSVDCWEKFF [EEF1AKNMT_Y16_Y16C]	0.944	1.03	0.83	0.462	0.474	0.624	0.436	0.511	1.24	0.459	1.14	0.569	0.461	0.426	0.801	1.04

The next lines start with results.

SH2 binding enrichment (Grb2 SH2)	SH2 binding enrichment (SHP2-C SH2)	SH2 binding enrichment (c-Src SH2)	Sequence	phosphorylation enrichment (Fer (mouse))	phosphorylation enrichment (EPHB1)	phosphorylation enrichment (EPHB2)	phosphorylation enrichment (Fyn)	phosphorylation enrichment (FGFR1)	phosphorylation enrichment (Fes)	phosphorylation enrichment (MERTK)	phosphorylation enrichment (AncSZ)	phosphorylation enrichment (FGFR3)	phosphorylation enrichment (c-Src)	phosphorylation enrichment (Hck)	phosphorylation enrichment (c-Abl (mouse))	phosphorylation enrichment (Jak2)
1.13	0.819	0.556	HRGFLYLAIEF [TEK_Y899_Y897F_YF]	0.968	0.765	0.539	0.352	0.515	1.67	0.711	1.49	1.02	0.687	0.627	1.52	1.7
0.766	1.13	0.466	QKMADYSNKLH [PDPR_Y104_Y109H]	0.571	0.569	0.864	0.382	0.527	0.835	0.429	0.843	0.708	0.706	0.586	0.714	0.974
0.777	0.563	0.485	GSERRYTREGG [PTPRN2_Y139_S140T]	0.351	0.345	0.347	0.319	0.458	0.583	0.382	0.448	0.407	0.482	0.415	0.489	0.463
0.832	0.753	1.44	YSIDYYRVGGH [NTRK2_Y707_T704I]	0.514	1.52	0.86	1.31	12.5	0.916	8.42	1.65	9.07	2.15	1.78	0.494	6.54
1.14	0.782	1.14	KSVEEYANCHL [TF_Y593_P589S]	0.466	0.482	0.429	0.458	0.475	0.85	0.521	0.756	0.666	0.408	0.486	0.628	0.688
0.879	0.483	0.557	GLDGSYLPRDS [SH2D1A_Y29_L31P]	0.419	0.44	0.4	0.356	0.418	0.624	0.416	0.663	0.446	0.418	0.55	0.513	0.534
0.994	0.86	0.601	DFFDLYGGEKK [PTPN11_Y66_F71K_YF]	0.566	0.511	0.79	1.32	0.562	1.38	0.499	1.17	0.772	2.26	2.81	0.827	1.16
0.732	0.602	0.533	SLTGAYASGIP [POM121C_Y378_T379A]	0.453	0.518	0.43	0.478	0.519	0.906	0.436	0.627	0.602	0.482	0.575	0.647	0.904
0.911	0.683	0.429	PTDSVYVMPTV [MYO7A_Y1668]	0.77	1.15	0.708	8.58	2.32	0.926	8.35	2.78	1.68	4.43	3.43	3.01	0.827
